According to patent publication US20250262297A1, “ALLERGY ANTIGEN AND EPITOPE THEREOF” (HOYU CO., LTD., priority 2017, published 2025):
Blank lines part the entries; values can stand above or below the molecule they belong to.

System: IgE antibodies from soybean-allergic patients
Test: Immunoblotting of two-dimensional electrophoresis pattern of soybean proteins with patient serum
Type: binding, human
Details: spot in 2D electrophoresis gel of soybean proteins; patient serum compared with healthy subject serum
Text: Transfer to membrane was done using the following transfer system and transfer buffer. • Transfer system: XCell SureLock Mini-Cell and XCell II Blot Module (produced by Life Technologies) • Transfer buffer: NuPAGE Transfer Buffer (X20) (produced by Life Technologies), used in a form diluted 20-fold with milliQ water.
To be specific, proteins in the two-dimensional electrophoresis gels were transferred to a membrane (PVDF membrane) according to the following procedure. • (1) The PVDF membrane was immersed in 100% methanol followed by milliQ water, and then moved into the transfer buffer to hydrophilize the PVDF membrane. • (2) After sponge, filter paper, the gels treated by second-dimensional SDS-PAGE, the hydrophilized PVDF membrane, filter paper, and sponge were put in place in this order, the transfer system was energized at a constant voltage of 30 V for one hour.
Immunoblotting of the membrane was carried out using, as a primary antibody, a serum sample from a patient with a soybean allergy or a serum sample from a healthy subject.
Immunoblotting of the membrane was carried out according to the following procedure. • (1) The transferred membrane was shaken in a 5% skim milk/PBST solution (a PBS buffer containing 0.3% Tween 20 nonionic surfactant) at room temperature for one hour. • (2) The membrane was left to stand in a solution of 3% primary antibody serum in 5% skim milk/PBST at room temperature for one hour. • (3) The membrane was washed with a PBST solution (5 min.×3 times). • (4) The membrane was left to stand in a 1:2500 dilution of the secondary antibody, anti-human IgE-HRP (horseradish peroxidase), with a 3% skim milk/PBST solution at room temperature for one hour. • (5) The membrane was washed with a PBST solution (5 min.×3 times). • (6) The membrane was left to stand in Pierce Western Blotting Substrate Plus (produced by Thermo Fisher Scientific) for 5 minutes.
The membrane obtained through the foregoing series of treatments was subjected to fluorescent image scanning on Typhoon 9400 (produced by GE).
The immunoblots obtained with the serum from the soybean-allergic patient were compared with those obtained with the control serum from the healthy subject.

B1: P24 oleosin isoform A (protein)
chain: MTTQVPPHSVQVHTTTHRYEAGVVPPGARFEPPRYEAGVKAPSIYHSERGPTTSQVLAVLAGLPVGGILLLLAGLTLAGTLTGLAVATPLFVLFSPVLVPATVAIGLAVAGFLTSGAFGLTALSSFSWILNYIRETQPASENLAAAAKHHLAEAAEYVGQKTKEVGQKTKEVGQDIQSKAQDTREAAARDAREAAARDAREAAARDAKVEARDVKRTTVTATTATA
modifications: Glycine max
- specific binding to IgE antibodies from soybean-allergic patients: specific binding

B3: seed maturation protein PM22 (protein)
chain: MSQLLDKAKNFVSEKVNDMAKPEASVTDVDFKRVSKDNVEYLAKVSVRNPYSTSIPICEINYSFKSASREIASGKIPDPGSLKAKDTTMVDVPVKVPYSILMSLAKDIGADWDIDYQLDLGLVIDVPVIGIFTIPLSQKGEIKLPTLSTMFA
- specific binding to IgE antibodies from soybean-allergic patients: specific binding

B4: uncharacterized protein LOC100813859 (protein)
chain: MASEESQNKPPSEQSTTELITSAKLVAEAAQSALKSDSDKVDKAKVADAAGDLLDAAGKYGKLDDKQGIGQYVDKAADYLHNYQGDNTTAPSQPAESKGEESGGGLGGLANLAGGFFKK
- specific binding to IgE antibodies from soybean-allergic patients: specific binding

B5: uncharacterized protein LOC100499771 (protein)
chain: MAPIAVGDVIPDGILAYLDEENKPQTVSIHSLAAGKKVIIFGVPGAFTPTCSLKHVPGFIERAEELKGKGVDEIICISVNDPFVMNSWAKTFPENKHVKFLADGAAKYTNALGLELDLTDKGLGVRSKRFALLVEDLKVKVANVESGGEFTISSAEEIIKAL
modifications: Glycine max
notes: spot also identified as hypothetical protein GLYMA_09G192800
- specific binding to IgE antibodies from soybean-allergic patients: specific binding

B7: uncharacterized protein At3g49720-like isoform X2 (protein)
chain: MTRKQASSTRRGGLSGVLHSKSKSSPLLSISLVLFVAILLILYACIGSGILGGRKDVISMAEDDFSCTFEVPSAIPVLKNAYGGSMKNVLHVGPESCSVVSKFLREGETEAWGVEPYDLDDADRNCKALVQKGIIRVADIKFPLPYRVKSFSHVIVSDALDYLSPKYINKTLPELARVSSDGIIIFTGYPGQPRAKIAPLSKFGRPHRC
- specific binding to IgE antibodies from soybean-allergic patients: specific binding

B9: endoplasmin homolog isoform X2 (protein)
chain: MRKWTVASALLLLSLLFLFADQGRKFQANAEGDSDELVDPPKVEDKIGAVPHGLSTDSDVVKREAESISKRSLRSNAEKFEFQAEVSRLMDIIINSLYSNKDIFLRELISNASDALDKIRFLSLTDKEVLGEGDNTKLDIQIKLDKEKKILSIRDRGIGMTKEDLIKNLGTIAKSGTSAFVEKMQTSGDLNLIGQFGVGFYSVYLVADYVEVISKNNDDKQYVWESKADGAFAISEDTWNEPLGRGTEIRLHLKEEAGEYLEESKLKELVKRYSEFINFPIYIWASKEVDVEVPADEDDSSDEEDSSESSSKEESEDEDADKSEDEEKKPKTKTVKETTYEWELLNDVKAIWLRNPKEVTEEEYTKFYHSLAKDFSDEKPLAWSHFTAEGDVEFKAVLFVPPKAPQDLYESYYNANKSNLKLYVRRVFISDEFNELLPKYLNFLLGLVDSDTLPLNVSREMLQQHSSLKTIKKKLIRKALDMIRRIADEDPDESTDKEKKDASSDNDEKKGQYSKFWNEFGKSIKLGIIEDATNRNRLAKLLRFESTKSEGKLTSLDQYISRMKTGQKDIFYITGTSKEQLENSPFLERLKKKNFEVIFFTDPVDEYLMQYLMDYEDKKFQNVSKEGLKLGKDSKDKELKESFKDLTKWWKTALSKDNVDDVKISNRLDNTPCVVVTSKFGWSANMERIMQSQTLSDASKQAYMRGKRVLEINPRHPIIKELRERVVKNPEDEGVKHTAQLMYQTALFESGFLLDDPKDFASRIYDSVKTSLDISPEATVEEEDDTEVEAESDAKEDSKPETDAVNDDNDVKDEL
modifications: Glycine max
- specific binding to IgE antibodies from soybean-allergic patients: specific binding

B14: superoxide dismutase [Mn], mitochondrial (protein)
chain: MAARALLTRKTLATVLRNDAKPIIGVGITAAATHSRGLHVYTLPDLDYDYGALEPAISGDIMQLHHQKHHQTYITNYNKALEQLQDAIAKKDSSAVVKLQGAIKFNGGGHVNHSIFWKNLAPVREGGGEPPKGSLGWAIDTHFGSFEALIQKVNAEGAALQGSGWVWLGLDKELKRLVVETTANQDPLVTKGPNLVPLIGIDVWEHAYYLQYKNVRPDYLKNIWKVINWKYASEVYEKESS
modifications: Glycine max
notes: spot also identified as hypothetical protein GLYMA_04G221300
- specific binding to IgE antibodies from soybean-allergic patients: specific binding

Other lines, results leading:

- specific binding to IgE antibodies from soybean-allergic patients: specific binding
B2: eukaryotic translation initiation factor 5A-2 (protein)
chain: MSDEEHHFESKADAGASKTYPQQAGTIRKNGYIVIKGRPCKVVEVSTSKTGKHGHAKCHFVGIDIFTAKKLEDIVPSSHNCDVPHVNRTDYQLIDIAEDGFLSLLTENGNTKDDLKLPTDESLLTQIKDGFAEGKDLVVSVMSAMGEEQICALKDIGPKN
modifications: Glycine max
notes: spot also identified as uncharacterized protein LOC100305510

- specific binding to IgE antibodies from soybean-allergic patients: specific binding
B6: ATP synthase subunit O, mitochondrial-like (protein)
chain: MALCNRVRSGISLFTKSTFLTSQRSTLQRSLVAPFISLASRNYANVPGQKETKVKVPLALFGGSGNYASALYIASVKANAVEKVETELLQFVEAVKNSPIFSQFIRDLSVAKDVRVKVIQDICGEAKFSDVTKNFLVIVAENGRLKNIDTIAKRFAQLSMAYKGEVQATVTTVVPLPPEEEKALKETLQEIIGSGAKVHLEQKIDPSILGGLVLEFSQKVFDMSIKTRAQQMERILREPVSIANI

- specific binding to IgE antibodies from soybean-allergic patients: specific binding
B8: seed maturation protein PM34 (protein)
chain: MASGEQKFPPQQQQTQPGKEHAMTPVPQFTSPDYKPSNKLQGKIALVTGGDSGIGRAVCNLFALEGATVAFTYVKGHEDKDARDTLEMIKRAKTSDAKDPMAIASDLGYDENCKRVVDEVVSAYGCIDILVNNAAEQYECGTVEDIDEPRLERVFRTNIFSYFFMARHALKHMKEGSSIINTTSVNAYKGHAKLLDYTSTKGAIVAYTRGLALQLVSKGIRVNGVAPGPIWTPLIPASFKEEETAQFGAQVPMKRAGQPIEVAPSYVFLASNQCSSYITGQVLHPNGGTVVNG
modifications: Glycine max
notes: spot also identified as uncharacterized protein LOC100809384 and hypothetical protein GLYMA_10G155300

- specific binding to IgE antibodies from soybean-allergic patients: specific binding
B10: 35 kDa seed maturation protein isoform X1 (protein)
chain: MASRQQFKEDRAEAAAKLAAKDIGDINRTNERDEGYDLHDEANFKQARAEAAAKLAAKDLEDANRLRDNTFNTWKEQHQHDENKPGVIGSMFRAAKEAVVGKPHHEEVYAKETKMGEYSDYATQKARETKQKAGEYTDYAAQKAKETKDYAAEKAKNAKDTTVQKAGEYKDYTAEKAKNAKDTTVQKAGEYKDYTAEKAIEGKDSAVGKLGELKESAADAAKRAMGFFTGGNKDQTREEEEETRRSMQEVRVQDKEYGTGRGTGEKLVIKMEESRPGAVADALKAANRAMDGDMEEEGVLHVERRREKM

- specific binding to IgE antibodies from soybean-allergic patients: specific binding
B11: uncharacterized protein LOC100306570 (protein)
chain: MASQSNTKSVHDFTVKDARGNNVNLADYKGKVLLIVNVASQCGLTNSNYTELNQLYEKYKGKGLEILAFPCNQFGAQEPGTNEEIVEFACTRFKAEFPIFDKVDVNGDNAAPLYKFLKSSKGGLFGDSIKWNFSKFLVDKDGNVVDRYAPTTSPLSIEKDIKKLLDA

- specific binding to IgE antibodies from soybean-allergic patients: specific binding
B12: alcohol dehydrogenase 1 (protein)
chain: MSSSTVGQVIKCKAAVSWEAGKPLVIEEVEVAPPQAGEVRLKILYTSLCHTDVYFWEAKGQTPLFPRIFGHEAGGIVESVGEGVTHLKPGDHALPVFTGECGECPHCKSEESNMCDLLRINTDRGVMIHDSQTRFSIKGQPIYHFVGTSTFSEYTVVHAGCVAKVNPAAPLDKICVLSCGICTGLGATINVAKPKPGSSVAIFGLGAVGLAAAEGARISGASRIIGVDLVSSRFEEAKKFGVNEFVNPKDHDKPVQEVIAAMTNGGVDRAVECTGSIQAMISAFECVHDGWGVAVLVGVPNKDDAFKTHPVNFLNERTLKGTFYGNYKPRTDLPSVVEKYMNGELELEKFITHTVPFSEINKAFDYMLKGESIRCIIRMGE
modifications: Glycine max
notes: spot also identified as alcohol dehydrogenase 1-like

- specific binding to IgE antibodies from soybean-allergic patients: specific binding
B13: phosphoglycerate kinase, cytosolic (protein)
chain: MATKRSVGTLKEGDLKGKRVFVRVDLNVPLDDNLNITDDTRVRAAVPTIKYLTGYGAKVILSSHLGRPKGVTPKYSLKPLVPRLSQLLGIEVTMANDSIGEEVEKLVTQLPEGGVLLLENVRFYKEEEKNDPEFAKKLASLADLYVNDAFGTAHRAHASTEGVAKYLKPSVAGFLMQKELDYLVGAVSNPKRPFAAIVGGSKVSSKIGVIESLLEKVNVLLLGGGMIFTFYKAQGYSVGSSLVEEDKLSLATTLLEKAKAKGVSLLLPTDVVIADKFAADANSKTVPASSIPDGWMGLDIGPDSIKTFGEALDTTQTIIWNGPMGVFEFDKFATGTEAIAKKLAELSGKGVTTIIGGGDSVAAVEKVGLADKMSHISTGGGASLELLEGKQLPGVLALDDA
modifications: Glycine max
